Measured values: article PMC5282582
Where a chain is given by its changes, count along the chain named. In names and notes the source's numbering stands.

T1: γ subunit of human NAD-dependent isocitrate dehydrogenase (human, UniProt P51553 40-393)
T1 construct: γ subunit of human NAD-IDH (IDH3G); the N-terminal 39 residues (mitochondrial signal peptide) were removed during construction; a TEV protease site stood between the subunit and the His6 tag; residues of the site may remain after cleavage; also called IDH3G; regulatory subunit; not shown: His6, C-terminal, cleaved
T1 sequence (looked up): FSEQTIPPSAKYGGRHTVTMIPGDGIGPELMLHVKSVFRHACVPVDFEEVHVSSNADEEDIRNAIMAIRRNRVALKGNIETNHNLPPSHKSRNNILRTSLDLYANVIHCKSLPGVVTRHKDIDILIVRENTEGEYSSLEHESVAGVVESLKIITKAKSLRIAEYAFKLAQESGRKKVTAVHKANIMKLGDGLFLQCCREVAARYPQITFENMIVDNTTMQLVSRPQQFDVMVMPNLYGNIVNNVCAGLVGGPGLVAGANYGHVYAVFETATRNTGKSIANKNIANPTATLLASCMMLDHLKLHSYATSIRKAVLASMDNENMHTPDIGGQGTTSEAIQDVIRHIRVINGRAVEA

B1: mutant α_(Y126F)βαγ heterotetramer of human NAD-dependent isocitrate dehydrogenase (complex)
chain 1: TGGVQTVTLIPGDGIGPEISAAVMKIFDAAKAPIQWEERNVTAIQGPGGKWMIPSEAKESMDKNKMGLKGPLKTPIAAGHPSMNLLLRKTFDLYANVRPCVSIEGYKTPYTDVNIVTIRENTEGEFSGIEHVIVDGVVQSIKLITEGASKRIAEFAFEYARNNHRSNVTAVHKANIMRMSDGLFLQKCREVAESCKDIKFNEMYLDTVCLNMVQDPSQFDVLVMPNLYGDILSDLCAGLIGGLGVTPSGNIGANGVAIFESVHGTAPDIAGKDMANPTALLLSAVMMLRHMGLFDHAARIEAACFATIKDGKSLTKDLGGNAKCSDFTEEICRRVKDLD
chain 2: not shown
chain 3: B1 chain 1 with F126Y
chain 4: T1 sequence (looked up)
B2: α subunit of human NAD-dependent isocitrate dehydrogenase (natural protein, UniProt P50213 28-366, looked up)
chain: B1 chain 1 with F126Y
notes: α subunit of human NAD-IDH (IDH3A); the N-terminal 27 residues (mitochondrial signal peptide) were removed during construction; cloned in the co-expression vector pQlinkN; gene bought from FulenGen in pReceiver-B01/B02; also called IDH3A; catalytic subunit
B3: mutant αβα_(Y126F)γ heterotetramer of human NAD-dependent isocitrate dehydrogenase (complex)
chain 1: B1 chain 1 with F126Y
chain 2: not shown
chain 3: B1 chain 1
chain 4: T1 sequence (looked up)

Assays:
[1] = target: the molecule itself; assay: SEC-MALS; 100 μl of purified protein injected at 2 mg/ml (low concentration); Superdex 200 10/300 GL, room temperature, 10 mM HEPES pH 7.4, 200 mM NaCl, 5 mM β-ME, 0.4 ml/min
[2] = target: T1, γ subunit of human NAD-dependent …; assay: SDS-PAGE of the co-purified complex; subunits co-expressed in E. coli, purified as a complex by the His6 tag of β or γ (Ni-NTA, TEV cleavage, second Ni-NTA, gel filtration); 12% SDS-PAGE with Coomassie blue staining, intensity of the two bands; details: both partners purified
[3] = target: β subunit of human NAD-dependent isocitrate dehydrogenase (human); assay: as above; details: both partners purified
β subunit of human NAD-dependent isocitrate dehydrogenase (human), sequence (chain, as listed by the source): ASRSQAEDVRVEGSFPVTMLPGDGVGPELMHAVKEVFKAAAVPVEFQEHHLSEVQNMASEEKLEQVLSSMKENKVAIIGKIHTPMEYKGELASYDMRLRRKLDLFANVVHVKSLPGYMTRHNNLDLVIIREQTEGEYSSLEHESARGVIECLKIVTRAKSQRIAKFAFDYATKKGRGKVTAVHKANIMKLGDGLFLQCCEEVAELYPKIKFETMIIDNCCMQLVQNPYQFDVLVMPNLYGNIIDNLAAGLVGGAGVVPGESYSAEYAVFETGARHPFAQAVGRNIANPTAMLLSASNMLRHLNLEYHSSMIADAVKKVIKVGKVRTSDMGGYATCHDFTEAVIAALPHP

Binder | stoichiometry N [1] | stoichiometry N [2] | stoichiometry N [3]
B1 | 2 |  | 
B2 |  | 1 | 1
B3 | 2 |  | 
